# Data: paper PMC3128127
# Several values for one entry are separate records, joined by “and”; a condition that tells them apart may be missing. Equal values may be shown once.
# What was measured:
# [1] = target: HIV-1 GagPol, protease-inactive (D25A, PR-), from an expression plasmid (HIV-1); assay: incorporation into virus-like particles (fluorescence microscopy of pelleted, filtered particles)
# [2] = target: HIV-1 (NL4-3) GagPol, wild type, in authentic virions (HIV-1 (NL4-3)); assay: incorporation into virions (quantitative fluorescence-based Western blot, LI-COR)
# DsRed-clathrin LC, sequence (P09496 whole entry): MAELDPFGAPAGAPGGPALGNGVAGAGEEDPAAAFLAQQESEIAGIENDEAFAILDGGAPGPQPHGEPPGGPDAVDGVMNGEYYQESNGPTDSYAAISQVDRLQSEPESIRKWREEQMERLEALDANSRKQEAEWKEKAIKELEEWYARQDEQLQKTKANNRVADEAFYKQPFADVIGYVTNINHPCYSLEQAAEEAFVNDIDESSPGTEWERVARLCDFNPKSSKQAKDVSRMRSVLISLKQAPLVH
Substance,percent of VLPs labelled with DsRed-clathrin LC [1],percent of the total clathrin HC of the culture present in virions [2]
DsRed-clathrin LC (from UniProt P09496 1-248) (natural protein),40%,–
clathrin heavy chain (from UniProt Q00610 1-1675) (natural protein),–,6% and 8%
